Assay [1] can be described thus: Whole cell CADC assay in recombinant E. coli BL21(DE3). The class given is cell-based. The note with it: whole cells in pH7 PBS, 1 g/L trans-cinnamic acid, 12 h. Here is the method:
(§1) Seed cultures consisting of 5 ml of LB broth containing 100 mg/L ampicillin were prepared of E. coli BL21(DE3) strains that were individually transformed with each of pTpad1-fdc1, pTpad1Sc, pTfdc1Sc, pTpdcLp, and pTpadCBs. These cultures were grown for 12 hours at 30° C. while agitating at 250 rpm. 1 mL of each culture was then used to inoculate 3×250 mL cultures flasks containing 50 mL of LB supplemented with 100 mg/L ampicillin. The culture was then grown at 30° C. while agitating at 250 rpm until it reached an OD600 of 0.6, at which point the cultures were induced by the addition of IPTG to a final concentration of 0.2 mM. Cultures were then grown for an additional 6 h. Cells were then collected by centrifuging in 50 ml Falcon tubes for 5 min at 1400×g and washed once with pH7 PBS (phosphate buffered saline) buffer. The entire cell pellet was resuspended in 10 ml pH7 PBS buffer and the appropriate substrate (trans-cinnamic acid or p-coumaric acid) added at a final concentration of 1 g/L. Enzyme activity was monitored by taking 1 mL samples from the culture at both the time of initiation as well as after 12 h of culture. All samples were then analyzed by HPLC using the methods described herein.

Assay [2] can be described thus: Whole cell PADC assay in recombinant E. coli BL21(DE3). The class given is cell-based. The settings on record: whole cells in pH7 PBS, 1 g/L p-coumaric acid, 12 h. Here is the method:
as §1

B1: FDC1: ferulic acid decarboxylase encoded by FDC1 of S. cerevisiae, expressed in recombinant E. coli from pTfdc1Sc (protein, listed as Saccharomyces cerevisiae)
chain: MRKLNPALEFRDFIQVLKDEDDLIEITEEIDPNLEVGAIMRKAYESHLPAPLFKNLKGASKDLFSILGCPAGLRSKEKGDHGRIAHHLGLDPKTTIKEIIDYLLECKEKEPLPPITVPVSSAPCKTHILSEEKIHLQSLPTPYLHVSDGGKYLQTYGMWILQTPDKKWTNWSIARGMVVDDKHITGLVIKPQHIRQIADSWAAIGKANEIPFALCFGVPPAAILVSSMPIPEGVSESDYVGAILGESVPVVKCETNDLMVPATSEMVFEGTLSLTDTHLEGPFGEMHGYVFKSQGHPCPLYTVKAMSYRDNAILPVSNPGLCTDETHTLIGSLVATEAKELAIESGLPILDAFMPYEAQALWLILKVDLKGLQALKTTPEEFCKKVGDIYFRTKVGFIVHEIILVADDIDIFNFKEVIWAYVTRHTPVADQMAFDDVTSFPLAPFVSQSSRSKTMKGGKCVTNCIFRQQYERSFDYITCNFEKGYPKGLVDKVNENWKRYGYK
B1: the “CADC activity (trans-cinnamic acid to styrene)” value in assay [1] was “activities on both p-coumaric and trans-cinnamic acid”. Besides, the “activity on p-coumaric acid (to p-hydroxystyrene)” value in assay [2] is “activities on both p-coumaric and trans-cinnamic acid”.

Values taken from patent publication US9150884B2, “Microbial conversion of glucose to styrene and its derivatives” (Arizona Board of Regents, a Body Corporate of the State of …, priority 2011, dated 2015).
